Data as given in patent publication US20030068675, “Position dependent recognition of GNN nucleotide triplets by zinc fingers” (published 2003).
Residue numbers refer to the chain shown, from its start.

Assays:
Assay in all cases: EMSA
Settings in all cases: tags: MBP fusion
ZFP SBS#516 = ZFP SBS#516 (synthetic, UniProt P08047)
Procedure, shortened: (§1)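 Purified ZFP was titrated against labeled double-stranded target (1 nM or lower, at least 10-fold below expected Kd) carrying the natural binding site with flanks. Binding buffer was 10 mM Tris pH 7.5, 100 mM KCl, 1 mM MgCl2, 0.1 mM ZnCl2, 5 mM DTT, 10% glycerol, 0.02% BSA, with equilibration for at least 45 min. Bound and free target were separated on a 10% polyacrylamide gel.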

ZFP SBS#576 = ZFP SBS#576 (synthetic)
Procedure, shortened: as §1

ZFP SBS#519 = ZFP SBS#519 (synthetic, UniProt P08047)
Procedure, shortened: as §1

ZFP SBS#522 = ZFP SBS#522 (synthetic, UniProt P08047)
Procedure, shortened: as §1

ZFP SBS#581 = target: T1, ZFP SBS#581 (synthetic)
T1 chain: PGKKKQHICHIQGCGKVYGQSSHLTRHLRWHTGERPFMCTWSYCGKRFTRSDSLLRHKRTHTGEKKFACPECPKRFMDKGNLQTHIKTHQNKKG
Procedure, shortened: as §1

ZFP SBS#277 = target: T2, ZFP SBS#277 (synthetic)
T2 chain: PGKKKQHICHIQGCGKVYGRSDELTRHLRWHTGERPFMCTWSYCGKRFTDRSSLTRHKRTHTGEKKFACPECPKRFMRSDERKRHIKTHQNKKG
Procedure, shortened: as §1

ZFP SBS#278 = target: T3, ZFP SBS#278 (synthetic)
T3 chain: T2 chain with R20Q, D22W, D50E, S52G, S53T, T55A
Procedure, shortened: as §1

ZFP SBS#279 = target: T4, ZFP SBS#279 (synthetic)
T4 chain: T2 chain with R20Q, D22W
Procedure, shortened: as §1

ZFP SBS#252 = target: T5, ZFP SBS#252 (synthetic)
T5 chain: T2 chain with R82L, K83R
Procedure, shortened: as §1

ZFP SBS#281 = target: T6, ZFP SBS#281 (synthetic)
T6 chain: T2 chain with R20Q, D22G, E23S
Procedure, shortened: as §1

ZFP SBS#280 = target: T7, ZFP SBS#280 (synthetic)
T7 chain: T2 chain with R20Q, D22G, E23S, D50E, S52G, S53T, T55A
Procedure, shortened: as §1

ZFP SBS#276 = target: T8, ZFP SBS#276 (synthetic)
T8 chain: T2 chain with D50E, S52G, S53T, T55A
Procedure, shortened: as §1

ZFP SBS#570 = target: T9, ZFP SBS#570 (synthetic)
T9 chain: T2 chain with R20D, D22G, E23H, D50Q, S53N, T55V, E81H, R82L, K83T
Procedure, shortened: as §1

ZFP SBS#520 = ZFP SBS#520 (synthetic)
Procedure, shortened: as §1

ZFP SBS#577 = ZFP SBS#577 (synthetic, UniProt P08047)
Procedure, shortened: as §1

ZFP SBS#595 = target: T10, ZFP SBS#595 (synthetic)
T10 chain: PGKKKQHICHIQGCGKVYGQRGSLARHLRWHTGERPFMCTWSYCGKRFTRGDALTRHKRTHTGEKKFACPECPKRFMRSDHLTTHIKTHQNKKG
Procedure, shortened: as §1

ZFP SBS#531 = target: T11, ZFP SBS#531 (synthetic, UniProt P08047)
T11 chain: T2 chain with R20T, S21T, D22G, T25R, D50R, R51S, S53N, T55Q, R82L, K83S
Procedure, shortened: as §1

ZFP SBS#532 = ZFP SBS#532 (synthetic, UniProt P08047)
Procedure, shortened: as §1

ZFP SBS#534 = ZFP SBS#534 (synthetic)
Procedure, shortened: as §1

ZFP SBS#533 = ZFP SBS#533 (synthetic)
Procedure, shortened: as §1

ZFP SBS#588 = ZFP SBS#588 (synthetic, UniProt P08047)
Procedure, shortened: as §1

ZFP SBS#540 = target: T12, ZFP SBS#540 (synthetic)
T12 chain: T10 chain with Q20D, G22S, S23H, A25T, R50Q, G51S, D52G, A53S
Procedure, shortened: as §1

ZFP SBS#518 = ZFP SBS#518 (synthetic, UniProt P08047)
Procedure, shortened: as §1

ZFP SBS#517 = ZFP SBS#517 (synthetic, UniProt P08047)
Procedure, shortened: as §1

ZFP SBS#538 = ZFP SBS#538 (synthetic)
Procedure, shortened: as §1

ZFP SBS#606 = target: T13, ZFP SBS#606 (synthetic, UniProt P08047)
T13 chain: T10 chain with Q20T, R21T, G22S, S23N, A25R, G51S, A53N, T55Q, T83S, T84R
Procedure, shortened: as §1

ZFP SBS#528 = target: T14, ZFP SBS#528 (synthetic, UniProt P08047)
T14 chain: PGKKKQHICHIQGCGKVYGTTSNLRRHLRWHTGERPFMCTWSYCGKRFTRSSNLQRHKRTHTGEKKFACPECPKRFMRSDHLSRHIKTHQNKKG
Procedure, shortened: as §1

ZFP SBS#527 = target: T15, ZFP SBS#527 (synthetic, UniProt P08047)
T15 chain: T14 chain
Procedure, shortened: as §1

ZFP SBS#575 = target: T16, ZFP SBS#575 (synthetic)
T16 chain: T1 chain with Q20D, S21F, S53H, L55T
Procedure, shortened: as §1

ZFP SBS#587 = ZFP SBS#587 (synthetic)
Procedure, shortened: as §1

ZFP SBS#583 = ZFP SBS#583 (synthetic)
Procedure, shortened: as §1

ZFP SBS#574 = target: T17, ZFP SBS#574 (synthetic)
T17 chain: T1 chain with Q20R, S22D, S53H, L55T
Procedure, shortened: as §1

ZFP SBS#515 = ZFP SBS#515 (synthetic)
Procedure, shortened: as §1

ZFP SBS#579 = target: T18, ZFP SBS#579 (synthetic)
T18 chain: T2 chain with E23N, D50N, S52D, S53T, T55A, R78T, D80G, E81H, R82L, K83T
Procedure, shortened: as §1

ZFP SBS#519, sequence (P08047 other isoform, or with tags, fused parts or gaps): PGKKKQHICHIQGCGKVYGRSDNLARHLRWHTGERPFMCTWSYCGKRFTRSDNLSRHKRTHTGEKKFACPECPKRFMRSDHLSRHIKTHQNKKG
ZFP SBS#532, sequence (P08047 other isoform, or with tags, fused parts or gaps): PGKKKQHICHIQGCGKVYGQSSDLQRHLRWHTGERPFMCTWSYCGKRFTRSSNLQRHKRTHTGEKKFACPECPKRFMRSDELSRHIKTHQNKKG
ZFP SBS#533 (synthetic), sequence (chain, as listed by the source): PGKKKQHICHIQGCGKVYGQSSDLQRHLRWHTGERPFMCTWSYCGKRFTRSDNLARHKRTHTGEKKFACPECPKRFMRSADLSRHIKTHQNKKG
ZFP SBS#583 (synthetic), sequence (chain, as listed by the source): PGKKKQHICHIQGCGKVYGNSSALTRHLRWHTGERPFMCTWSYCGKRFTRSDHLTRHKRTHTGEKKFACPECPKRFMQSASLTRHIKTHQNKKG
ZFP SBS#576 (synthetic), sequence (chain, as listed by the source): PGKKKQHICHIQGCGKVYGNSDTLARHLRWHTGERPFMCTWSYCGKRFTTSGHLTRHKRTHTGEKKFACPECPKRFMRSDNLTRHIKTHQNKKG
ZFP SBS#518, sequence (P08047 other isoform, or with tags, fused parts or gaps): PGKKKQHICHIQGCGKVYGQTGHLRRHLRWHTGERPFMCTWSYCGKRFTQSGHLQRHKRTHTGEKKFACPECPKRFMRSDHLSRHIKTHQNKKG
ZFP SBS#587 (synthetic), sequence (chain, as listed by the source): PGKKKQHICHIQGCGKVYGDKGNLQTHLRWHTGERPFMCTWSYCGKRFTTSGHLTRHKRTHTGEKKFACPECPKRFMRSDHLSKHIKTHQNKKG
ZFP SBS#517, sequence (P08047 other isoform, or with tags, fused parts or gaps): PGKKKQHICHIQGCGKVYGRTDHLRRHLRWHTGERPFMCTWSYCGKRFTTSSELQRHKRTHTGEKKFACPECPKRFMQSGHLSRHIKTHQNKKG

B1: GGAGGAGCT (dsDNA)
DNA 1: GGAGGAGCT
DNA 2: AGCTCCTCC
Kd (ZFP SBS#516): 700 nM

B2: GAGGGTGTTG (dsDNA)
DNA 1: GAGGGTGTTG
DNA 2: CAACACCCTC
Kd (ZFP SBS#576): 200 nM

B3: GGGGAGGAGA (dsDNA)
DNA 1: GGGGAGGAGA
DNA 2: TCTCCTCCCC
Kd (ZFP SBS#519): 0.3 nM

B4: GATGAGGCA (dsDNA)
DNA 1: GATGAGGCA
DNA 2: TGCCTCATC
Kd (ZFP SBS#522): 200 nM

B5: TACGTGGGTT (dsDNA)
DNA 1: TACGTGGGTT
DNA 2: AACCCACGTA
Kd (ZFP SBS#581): 382 nM

B6: GCGGCCGCG (dsDNA)
DNA 1: GCGGCCGCG
DNA 2: CGCGGCCGC
Kd (ZFP SBS#277): 107 nM | Kd (ZFP SBS#278): 190 nM | Kd (ZFP SBS#279): 260 nM | Kd (ZFP SBS#252): 100 nM | Kd (ZFP SBS#281): 225 nM | Kd (ZFP SBS#280): 160 nM | Kd (ZFP SBS#276): 90 nM

B7: GGGGAAGGCT (dsDNA)
DNA 1: GGGGAAGGCT
DNA 2: AGCCTTCCCC
Kd (ZFP SBS#570): 20 nM

B8: GGAGGAGAT (dsDNA)
DNA 1: GGAGGAGAT
DNA 2: ATCTCCTCC
Kd (ZFP SBS#520): 300 nM

B9: GGAGCGGGGA (dsDNA)
DNA 1: GGAGCGGGGA
DNA 2: TCCCCGCTCC
Kd (ZFP SBS#577): 200 nM

B10: TGGTTGGTAT (dsDNA)
DNA 1: TGGTTGGTAT
DNA 2: ATACCAACCA
Kd (ZFP SBS#595): 73.3 nM

B11: GCGGAGGCTT (dsDNA)
DNA 1: GCGGAGGCTT
DNA 2: AAGCCTCCGC
Kd (ZFP SBS#531): 160 nM | Kd (ZFP SBS#532): 100 nM | Kd (ZFP SBS#534): 10 nM | Kd (ZFP SBS#533): 7 nM

B12: GGGGGGGGGG (dsDNA)
DNA 1: GGGGGGGGGG
DNA 2: CCCCCCCCCC
Kd (ZFP SBS#588): 30 nM

B13: TGGGCAGGCC (dsDNA)
DNA 1: TGGGCAGGCC
DNA 2: GGCCTGCCCA
Kd (ZFP SBS#540): 55 nM

B14: GGGGGAGGAG (dsDNA)
DNA 1: GGGGGAGGAG
DNA 2: CTCCTCCCCC
Kd (ZFP SBS#518): 30 nM

B15: GGAGCTGGGG (dsDNA)
DNA 1: GGAGCTGGGG
DNA 2: CCCCAGCTCC
Kd (ZFP SBS#517): 50 nM

B16: GCAGAGGCTT (dsDNA)
DNA 1: GCAGAGGCTT
DNA 2: AAGCCTCTGC
Kd (ZFP SBS#538): 70 nM

B17: GGGGAGGATC (dsDNA)
DNA 1: GGGGAGGATC
DNA 2: GATCCTCCCC
Kd (ZFP SBS#606): 0.2 nM | Kd (ZFP SBS#528): 10 nM | Kd (ZFP SBS#527): 2 nM

B18: TACGTGGGCT (dsDNA)
DNA 1: TACGTGGGCT
DNA 2: AGCCCACGTA
Kd (ZFP SBS#575): 472 nM

B19: GGGGGTTACG (dsDNA)
DNA 1: GGGGGTTACG
DNA 2: CGTAACCCCC
Kd (ZFP SBS#587): 500 nM

B20: GTAGGGGTTG (dsDNA)
DNA 1: GTAGGGGTTG
DNA 2: CAACCCCTAC
Kd (ZFP SBS#583): 46 nM

B21: TACGTGGGGT (dsDNA)
DNA 1: TACGTGGGGT
DNA 2: ACCCCACGTA
Kd (ZFP SBS#574): 25 nM

B22: TGGGAGGAGT (dsDNA)
DNA 1: TGGGAGGAGT
DNA 2: ACTCCTCCCA
Kd (ZFP SBS#515): 0.5 nM

B23: GGGGTTGAGG (dsDNA)
DNA 1: GGGGTTGAGG
DNA 2: CCTCAACCCC
Kd (ZFP SBS#579): 200 nM
